Measured values reported in patent publication US20140314780A1, “Compositions Using Antibodies Directed to GPNMB and Uses Thereof” (Celldex Therapeutics, Inc., priority 2008, published 2014).

Target: T1, GPNMB (Homo sapiens, UniProt Q14956)
T1 construct: V5His; made in house
T1 sequence (Q14956 23-492): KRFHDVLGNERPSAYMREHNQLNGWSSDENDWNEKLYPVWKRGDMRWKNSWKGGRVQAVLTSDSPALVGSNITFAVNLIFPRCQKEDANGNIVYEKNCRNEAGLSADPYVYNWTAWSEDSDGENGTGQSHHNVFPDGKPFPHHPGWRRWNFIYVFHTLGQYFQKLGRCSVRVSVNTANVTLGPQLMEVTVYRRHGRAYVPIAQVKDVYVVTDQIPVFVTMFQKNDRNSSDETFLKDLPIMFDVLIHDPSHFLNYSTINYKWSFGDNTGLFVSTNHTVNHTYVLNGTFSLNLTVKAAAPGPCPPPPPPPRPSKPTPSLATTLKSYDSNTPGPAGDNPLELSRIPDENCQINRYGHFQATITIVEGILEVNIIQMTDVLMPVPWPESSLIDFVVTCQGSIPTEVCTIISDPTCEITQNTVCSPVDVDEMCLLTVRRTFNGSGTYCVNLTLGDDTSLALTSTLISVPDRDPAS
Assay: Epitope binning of anti-GPNMB antibodies (competitive binding)
Settings: six anti-GPNMB antibodies, three bins
Description: Certain antibodies, described herein were binned in accordance with the protocol described in U.S. Patent Application Publication No. 20030157730. […] Competitive binding by antibodies from […] supports antibody specificity for similar or adjacent epitopes. Non competitive binding supports antibody specificity for unique epitopes.
Three bins were created to further test the binding of six anti-GPNMB antibodies. Bin 1 included GPNMB antibodies (1.2.1), (1.10.1), and (2.22.1). Bin 2 included GPNMB antibodies (2.3.1) and (1.15.1), and Bin 3 included GPNMB antibody (2.10.1). The results of the binning assays are provided below in Tables 4 and 5.

- epitope bin: Bin 1
B1: Mab2.22.1: human anti-GPNMB antibody; VH SEQ ID NO: 164, VL SEQ ID NO: 173 (antibody, listed as Homo sapiens, V domains shown)
VH: QVQLEQSGPGLVKPSQNLSLTCTVSGGSISSGGYFWSWIRQHPGKGLEWIGYIYYSGNTYYNPSLKSRVTISVDTSKNQFSLKLSSVTAADTAVYYCARDYYYDTSGFSYRYDWYYGMDVWGQGTTVTVSSA
VL: DIQLTQSPSSLSASVGDRVTITCRASQGIRNDLGWYQQKPGKAPKRLIYAASSLQNGVPSRFSGSGSGTEFTLTISSLQPEDFATYYCLQHNTYPAFGQGTKVEIKR
